Biological target: 47 aa syntaxin peptide corresponding to the SNARE interaction part of the syntaxin sequence (aa 201-248) (UniProt P32851)
Experiment: SPR; Biacore 2000, syntaxin peptide covalently immobilised on a CM5 chip; 0.13 mg/ml S-B in buffer B for 5 min; then washing or denaturing reagents 1 min each; 25°C

Chain of S-B, fusion of brevin to the C-terminus of SNAP25 (chain): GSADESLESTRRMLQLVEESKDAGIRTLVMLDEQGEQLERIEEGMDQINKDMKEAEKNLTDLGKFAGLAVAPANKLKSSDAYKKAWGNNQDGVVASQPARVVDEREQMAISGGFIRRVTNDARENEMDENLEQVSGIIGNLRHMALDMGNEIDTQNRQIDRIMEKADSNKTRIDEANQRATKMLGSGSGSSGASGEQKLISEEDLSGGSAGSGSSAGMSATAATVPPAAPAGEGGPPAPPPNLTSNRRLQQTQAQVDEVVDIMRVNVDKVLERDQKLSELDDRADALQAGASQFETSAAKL

## S-B, fusion of brevin to the C-terminus of SNAP25
  percent of originally bound S-B resistant to the harsh treatments: < 50%
